Test results reported in paper PMC4161314.
“And” between values parts separate entries of the source, which are not always exact repeats. Identical values can stand only once.

Molecular target: 20S proteolytic core of the proteasome, mouse liver (mouse (endogenous in mouse liver)) (UniProt O55234)
Test: negative-stain electron microscopy; proteasomes co-purified with polyubiquitin conjugates on GstUBD beads, released at 37°C for 7 minutes, stained with 2% uranyl acetate; visual classification of side views, WT and PiZ samples

Chain of UniProt O55234 (O55234 whole entry, looked up): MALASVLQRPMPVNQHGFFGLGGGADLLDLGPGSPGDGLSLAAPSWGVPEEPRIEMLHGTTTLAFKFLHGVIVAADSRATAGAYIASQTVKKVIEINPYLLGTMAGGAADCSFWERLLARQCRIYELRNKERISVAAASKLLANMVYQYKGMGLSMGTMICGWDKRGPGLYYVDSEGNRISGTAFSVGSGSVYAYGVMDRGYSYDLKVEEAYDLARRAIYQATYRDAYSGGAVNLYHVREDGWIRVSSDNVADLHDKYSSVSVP

- percent of proteasomes with at least one 19S cap: 93% and 90%
Substance: 19S activator of the proteasome, mouse liver (from UniProt P62334 1-389) (complex)
